Assay: label from the status in PepcDB records

| Sequence | protein production |
| --- | --- |
| MSSPFPADTPSSNRPSNSSPPPSSIGAGFGSSSGLDSQIGSRLHFPSSSQPHVSNSQTGPFVNDSTQFSSQRLQTDGSATNDMEGNEPARSFKSRALNHVKKVDDVTGEKVREAFEQFLEDFSVQSTDTGEVEKVYRAQIEFMKIYDLNTIYIDYQHLSMRENGALAMAISEQYYRFLPFLQKGLRRVVRKYAPELLNTSDSLKRSEGDEGQADEDEQQDDDMNGSSLPRDSGSSAAPGNGTSAMATRSITTSTSPEQTERVFQISFFNLPTVHRIRDIRSEKIGSLLSISGTVTRTSEVRPELYKASFTCDMCRAIVDNVEQSFKYTEPTFCPNPSCENRAFWTLNVTRSRFLDWQKVRIQENANEIPTGSMPRTLDVILRGDSVERAKPGDRCKFTGVEIVVPDVTQLGLPGVKPSSTLDTRGISKTTEGLNSGVTGLRSLGVRDLTYKISFLACHVISIGSNIGASSPDANSNNRETELQMAANLQANNVYQDNERDQEVFLNSLSSDEINELKEMVKDEHIYDKLVRSIAPAVFGHEAVKKGILLQMLGGVHKSTVEGIKLRGDINICVVGDPSTSKSQFLKYVVGFAPRSVYTSGKASSAAGLTAAVVRDEEGGDYTIEAGALMLADNGICCIDEFDKMDISDQVAIHEAMEQQTISIAKAGIHATLNARTSILAAANPVGGRYNRKLSLRGNLNMTAPIMSRFDLFFVILDDCNEKIDTELASHIVDLHMKRDEAIEPPFSAEQLRRYIKYARTFKPILTKEARSYLVEKYKELRKDDAQGFSRSSYRITVRQLESMIRLSEAIARANCVDEITPSFIAEAYDLLRQSIIRVDVDDVEMDEEFDNIESQSHAASGNNDDNDDGTGSGVITSEPPADIEEGQSEATARPGTSEKKKTTVTYDKYVSMMNMIVRKIAEVDREGAEELTAVDIVDWYLLQKENDLGSLAEYWEERRLAFKVIKRLVKDRILMEIHGTRHNLRDLENEENENNKTVYVIHPNCEVLDQLEPQDSS | failed |
| MSSPSLSPHYQKMLDDLDGQVLQLDRQVFRRLARLGYQPQVIFDVGASNSGWSYYIKQVVTEADFYLFEPLVDHVPDYQGLMEETLRVYPSFHLYKYALGDRDGTITVNVFDDPASSTTLPMTEGGPSINAVQVPLLTLDSALVKLGLPQPQVIKIDTQGNELSILRGAAQTLAKVDVLFLECWLYRGYGPKTPLLTEIAHWLLPFNFRLWDVSEPYRGPQGELTTLDCIFINTAAGLVPNWYY | failed |
| MSSQELVTLNVGGKIFTTRFSTIKQFPASRLARMLDGRDQEFKMVGGQIFVDRDGDLFSFILDFLRTHQLLLPTEFSDYLRLQREALFYELRSLVDLLNPYLLQPRPALVEVHFLSRNTQAFFRVFGSCSKTIEMLTGRITVFTEQPSAPTWNGNFFPPQMTLLPLPPQRPSYHDLVFQCGSDSTTDNQTGVRYVSIKPDNRKLANGTNVLGLLIDTLLKEGFHLVSTRTVSSEDKTECYSFERIKSPEVLITNETPKPETIIIPEQSQIKK | failed |
| MSSQLNHGTLPKISIVTPSYNQAQYLEATMRSILDQGYPDLEYIVMDGGSTDGSTEIIQKYSDRLTYWESAPDKGQADAIFRGFERATGEIFCYVNSDDLLLPGSLEMVGRWFREHPDEEWVVGGTILIDGLGIPIIRSRRGLPEADLGVKVTFKRLLLHNCGGFHQPASFWRRSAFEQAGGFDRTLRFCFDYDLFFRLAKRRPSGRIRSFLAAFRYHPASKTSTLESVFREENETLWRRYGRYLYSENQIRNFAHKQTTRDMWNNRIIKLGFYLKILNVSNAIGSLEHHHHHH | not failed |
| MSSRCLGCGTKFDSEAGRPRCPACRWEPEEIGGIAAYAPQFANQGGGFEASYFKVLSELEATNFWFRSRNDLILWALRKYHPKFRSFLEIGCGTGFVLSGVTGKYPEAEIFGSEIFIEGLRFASQRLPNARLMQMDARAIPFAEEFEAIGAFDVLEHIEEDETVLQQMHAALKPKGTLLVTVPQHPWLWSPLDDYAHHCRRYTANELSRKVTAAGFTILRNTSFVSFLLPAMLASRLLSRNKSVDEIDVRTEMQLPSLLNNAFRWILRAESALIGTGFDFPLGGSRLLVARKM | failed |
| MSSSGTSITCEVGLQLIVPDRAPVPLVARLDYSVDDPYAIRAAFHVGDDEPVEWIFARELLTVGIIRETGEGDVRIWPSQDGKERMVNIALSSPFGQARFHAQVAPLSEFLHRTYELVPAGQESDYIDIDAEIAEHLS | not failed |
| MSSSKKPSQQPSQINLSAEIGQFISLNQEAFAELLTFIDFAEKFTLGLVEVNFPPDVDLLIAALQNNPDCENIQFFILKCVDANLRFLRDEIIKRLSEIELESNKKLVLIVRGLENAIGVFGEYPPVLQDLNFVRDAYKRTVPHPILFILPDYAITRLAKFAPDFWAWRSGIFRFKTPAITKENAINQVKNSEILDRIEPPEKQERIDLLHRLLMEEKPTGQQVTDGNLRSYSNILHQLGQAYLSHIKPEKAREYLEEAERISENLQDELFQAEVINTLGDTYSLQRQFNLGIKYYEKSLLIARRLENRLSEINALFKLGNAYLDLRQFSQAAKFYQQCLDIEQEIGDRYSQASTYHELGRVAQNLREWEQAKTYYQQALDITIEFGDRYNQASTYHQLGMVAQKLRKWEQAKTYYQQALDITIEFGDRYNQARIYHQLAIVAQNLREWQQAKTYYQQALDLKIEFGDRYNQASTYHQLGMVAQNLREWEQAKTYYQQALDITIEFGDRYSQASTYHQLGIVAQNLREWEQAKTYYQQALDLKIEFGDRYSQASTYGQLGTLAEAQENYVEARLNLQTALEIYVEYKDEHWAGIARKILDELPE | failed |
| MSSTAPASQSTAEALEATASLPQAAVHDHASIMRVIGGIVLCILLAALDQTVVIPAVPAIANDLNGFGHLSWIVTAYLIVSTVTTPLYGKLSDSFGRRRLLMVAISLFILASVACALAQTLPQLILFRALQGLGGGGLMSLAQAAIADVVAPRERGRYQGYLATVWAISSIAGPLVGGWVSDHMSWRWLFWINVPLGLLAMTMCYRGLAHLKPRGGRPQVDWLGALLLAVAIVAFLLAMSWGGEAFAWISPEMAALLAISLVAVLLLAWQERRAADPMLPPRLFRNRAYVMGVGASALAALNIFLCIFALPLHFQLVRDADASMSGLLVVPFLLATVAGNFVVAWLAPRLGRMRVILTIGFVAAAVGLVSLAAVTVAVPTFFVLLAMTIGGIGLGMAMVGTLISVQNALERRDMGAGTGALLVLRSLGSSIGGALAGTLLAMEFRDALARAGVTQALDLGALRHGSEALAHLSPAVRHVLAGGVESGFHLIFAAGAVATIIALLIVRRMPDLELRSSVTEHAAKIHME | failed |
| MSSTSKIHAKITGPIVMIGFGSIGKGALPLIERHFEYDKKRFVIIDPHEDGELAKKHGVRFIKQAVTKDNYRELLVPLLTEGGGQGFCVNLSVDTGSVDLMTMCREIGALYIDTVVEPWLGFYFDKNAGPEKRSNYALRETLLAAKAKNPGGTTAVSTCGANPGMVSWFVKQALLDIARDTGLEFNEPKSREGWGQLAQKLGVKGIHIAERDTQRAKTPKPMNVFVNTWSVEGFVSEGLQPAELGWGTHEKWIPDNGRKHTEGCQAAIYLLQPGANTRVRTWCPTPGPQYGFLVTHNESISIADYFTVRDGQNVVYRPTCHYAYHPANDAVLSLHEMFGAEGKMQPKWHILDENEIVDGIDELGVLVYGHAKNAYWYGSQLSIEETREICPYQNATGMQVSSAVLAGMVWALENPEAGIVEADEMDFRRCLEVQKPYLGPVKGYYTDWTPLTDRPGLFPEDIDSSDPWQFKNVLVR | failed |
| MSSVERYLSQLVKTEPQLETLKELYIGKKWHQLTEELLKLIHSGQVNRINLVELYDSFIREFESSLNPLALVRILVGIARKNYRDLNKALEFVDYATNSKAFISADEEASLFLKSETARLKLEGGNLSGVKQILEEVGVAMESTRDLDTVVHSSYHRVCAQYYKAVGPATKYYSSALLFFQYAPLDSFTVEERVHWAYDLGVASIVAETIFNFGEILEYDIMQSLKSEKLQWLLELLEAFKYGSIEKFNQVSNDHMSYYFVL | failed |
| MSSVFPKVAVLLAAYNGMAWIEAQLDSILKQANVCVSVFISVDTSSDGTEAWCADYAQHHVNITLLPPAGQFGGASRNFFRLIQDVDFSSFDYVAFSDQDDIWYQDKLERALSTLMSGNHDAYSSNVVAFWPDGQRILLDKAQPQVQWDHLFEAAGPGCTYVMNRPLADAFKSSLIAQWDVAQNVSLHDWYCYAFARSHGFRWFIDPAPGMDYRQHANNQVGANTGLASLITRLKKIADGWWAGQVLLIGRLTGGSETLFAGKITGTRWMFLRLAFMAGRCRRRPRDKIFFIIACLAAMLNTPEQRNNR | failed |
| MSSVKDTMTTQVATVSPNQTIQEAASLMKQHNVGAIPVVEQGVLKGMLTDRDIALRTTAQGRDGQTPVSEVMSTELVSGNPNMSLEDASQLMAQHQIRRLPIVDQNNLVGIVALGDLAVNQMSNESAGSALTNISHQNIH | failed |
| MSTAMYHLRVPQTEEELERYYQFRWEMLRKPLHQPKGSERDGWDALAHHQMVVDEEGNLVAVGRLYINADNEASIRFMAVHPSVQDKGLGTLMAMTLESVARQEGVKRVTCSAREDAVEFFAKLGFVNQGEITTPTTTPIRHFLMIKPVASLDDILHRGDWCGQLQQAWYEHIPLSEKMGVRIQQYTGQKFITTMPETGNQNPHHTVFAGSLFSLATLTGWGLIWLMLRERHLGGTIILADAHIRYSKPISGKPNAVADLGSLSGDLDRLARGKKARVQLQVELLGGETAGAIFEGIYIVLPLEHHHHHH | failed |
| MSTCTLRFKNDWLKIFTCPVPSSDFLSFVGVATIDAPQHAVLSLLYDIESATEWVWKTREMRVLQELADDNEGRVVYQVVSAPWPVSDREIISRSTAYKDPETGEVFIKIESLPDFIPETSNCVRVRKLEGAWNILPLSENSCRVVFRLHIEPAGEIPSWLANIAVIDTPYHTLNNMRDMVKREKYKNPLEHHHHHH | failed |
| MSTDEERIYSIALTQIPGVGHIGAKRLVDGMGSATDVFRYRTELPDRLPGVNRAVVAALDSPQALKRAEQEYEFARNNRISCFTLADEDYPSRLRECDDAPVVLFFKGKANLNALHIINMVGTRNATDYGKHICVSFLQELQMLCPDVLVVSGLAYGIDINAHRSALSVELPTVGVLAHGLDRIYPSLHRKTAIDMLRQGGLLTEFLSGTNPDKHNFISRNRIVAGISDATIVVESAAKGGSLITADIAGSYHRDCFAFPGRVTDEYSKGCNQLIQDNKAVLLESASDFVKTMGWDSDLKSVKPETVQRNLFPDLSAEELRIVDILGKLGDLQINALMVQADIPINKISAILFELEMKGVIRVLAGGVYQLLR | failed |
| MSTDLAEQPFKFDDVFMQYYPCIYNFIRWLIQDEDCAQDLAQETFLRAFVNLGTRSEHNLSPWLHTIARNLCHDYWRKNKRRGGRELLLQDAFECEDESSKPLAAIENKETAKQIYKILNLLKSEQRTALLLREIEGLSYDDAARVMGISVSAYTSLLNRARNKFIKLIMTPYTKINKGLFTPKEYTVLYRWFGIDAWPEDPEQEIVHKAKHYFDNSALSFDEFRNSLYPFHLDQAILNRVLNKDPQIIGDFGSGTGQFTLKAASSVNLEKTYAFDISPKMVDFSQQRFKREGLRHIQCLPADLNSIPLESETLDIGYCLVVLHHLYDPGKAIKEMTRTLKPGGQLIIGDFGSHNYNLFTKNNKDLWSGFSPDQMTKWFNEAGLENIDIREEKDCIFKSTTQAGELVKIPLLMSSGIKRA | failed |
| MSTDSDTTPDTEEAREQLIDLAADFYDQFADGEVPTMTIPTRTKSNIVFDEDEQVWVYGDRNSTRSAKTISGAEKILKAVYTIDFLSQQLEEDRSSTLRELYYLSESWDLDEAQFNTQDESNNLIEDLEIVSDVKREDFHMRPEESGAKVMGPLLLREQTNRGDREIHCQDDVGQGGYQIPNNPDTIEFLDNDAKFVLCVETGGMRDRLVENGFDDEYDALVVHLGGQPARATRRLIKRLHDELDLPVTVFTDGDPWSYRIFGSVSYGSIKSAHLSEYLATPEAQFIGIRPEDIVEYELPTDPLSDSDVNALESELEDPRFQTDFWEEQIELQLDINKKAEQQALASRGLDFVTETYLPERLDEMGIL | failed |
| MSTDSIVKASNWRLVEVGRVVLIKKGQSAGKLAAIVEIIDQKKVLIDGPKAGVPRQAINLGQVVLTPLTFALPRGARTATVSKKWAAAAVCEKWAASSWAKKIAQRERRAALTDFERFQVMVLRKQKRYTVKKALAKA | failed |

Source: a protein production outcome set (Wang et al. 2014)
